Experimental data from article PMC2275616.
Several values for one entry are separate records, joined by “and”; a condition that tells them apart may be missing. Equal values may be shown once.

Target: phosphocellulose-purified tubulin (bovine (endogenous in bovine brain)) (UniProt Q6B856)
Assay: native gel or EMSA

Q: With “phosphocellulose-purified tubulin (from UniProt Q6B856 1-445) (complex)” as the substance, how does the stoichiometry N read?
A: 4 and 6 and 8
